# Measured values reported in publication PMC7119934 (Peptide Characterization and Application Protocols, 2007).
# Target: the molecule itself
# Experiment: SEC
protein,measurement,value
QKQIANQFNKAISQIQESLTTTSTALGKLQDVVNQNAQALNTLVKQLSS [HRN extended (902–950)],stoichiometry N,3
